For the data set, the system named is MS2 coat protein. Description: apparent KD of MS2 coat protein; designed switch direction (-1 OFF switch, 1 ON switch): -1; higher = weaker reporter binding. In a few lines:
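Each step of the titration lasted 0.8–1.5 h at the lowest concentration and 10–20 min at the highest. The protein, SNAP-549-labelled MS2 coat protein, went from 0.7 or 1.5 nM doubling to 3 µM over RNA switches transcribed on Illumina chips by stalled E. coli RNA polymerase. Normalised cluster fluorescence was curve-fitted, and the per-design median over clusters is given as apparent KD.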

[1] abbreviates: input ligand: microRNA oligo, concentration not stated.
Where [2] appears, read: Eterna round: R95, input ligand: microRNA oligo, concentration not stated.
Where [3] appears, read: Eterna round: R95, input ligand: FMN 200 uM.
Setting [4] is: Eterna round: R95, input ligand: none.

Take “AGAAGUAUAGGAUAUACGUCUGCGCACAUGAGGAUCACCCAUGUCGUGUUCCGUGGCAGAGUAGAAGGGUACGGAC [EX5 B.11] (Eterna round: R97, puzzle: Exclusion 5)”: the “apparent KD of MS2 coat protein” value (input ligand: FMN 200 uM) worked out at 305 nM and the “apparent KD of MS2 coat protein” value (input ligand: none) came out at 219 nM.
For the sequence “AGAGAAUACUCAGGAUAUCUGAAUAGAAAGAGAAGAGAAGGGAGACAUGAGGAUCACCCAUGUGAAGUCUUGAGACUACAUGGU [Prohibition 27 - Jieux - Exclusion NG 1] (Eterna round: R96, puzzle: Exclusion NG 1)”, the “apparent KD of MS2 coat protein” value under setting [1] was determined as 225 nM.
Consider “AGAGUGCUGCGAGGAUAUACAUGAGGAUCACCCAUGUUUUCCUGUGAGGCAAAGCCUCACAGGAUGUAGAAGGCGCAGUACUCA [Mat - Exclusion NG 2 - Mod of JL - D39] (Eterna round: R96, puzzle: Exclusion NG 2)”, for which the “apparent KD of MS2 coat protein” value runs as follows: (input ligand: FMN 200 uM) 13.9 nM; under setting [1], 11.1 nM; (input ligand: none) 17.7 nM.
The like results for “AGAGUGCUGCGAGGAUAUACAUGAGGAUCACCCAUGUUUUCCUGUGAGGCUUUGCCUCACAGGAUGUAGAAGGCGCAGUACUCA [Mat - Exclusion NG 2 - Mod of JL - D38] (Eterna round: R96, puzzle: Exclusion NG 2)” were, in that order, 9.32 nM, 9.65 nM and 13.1 nM.
With “AGAGUGUGAGGAUAUAUGGUGCAGAUGAAGGGAUAGAAGGAGUAGAAGGUACAUGAGGAUCACCCAUGUUAGGA [JR_Exclu4_Sub077] (puzzle: Exclusion 4)”, the “apparent KD of MS2 coat protein” value under setting [2] was determined as 25.5 nM.
Take “AGAUAUCUAGGAUAUGCGUCGCGGAGGACUCCGAAGGGAGGACAUGAGGAUCACCCAUGUAGAAGGAGACAUUG [Eternabot (L2) Solution 38] (Eterna round: R97, puzzle: Exclusion 2)”: the “apparent KD of MS2 coat protein” value worked out at 46 nM (input ligand: FMN 200 uM) and 45 nM (input ligand: none).
For “AGAUCACAUGAGGAUCACCCAUGUGAGGAUAUAGAUUCAAGAGCUUCGGCUCUACAGUCUAGAAGGCACUAUGA [EX1 #46] (Eterna round: R97, puzzle: Exclusion 1)”, in that order: 30.4 nM and 25.7 nM.
“AGAUCACAUGAGGAUCACCCAUGUGAGGAUAUGAUACUAUGUACUUCGGUACAUAGUAUCAGAAGGCGCGUGAA [Ex1-3: 72] (puzzle: Exclusion 1)”: the “apparent KD of MS2 coat protein” value under setting [2] is 28.5 nM.
With “AGAUCCACCGAGGAUAUUGGAGUGAUAUCACUCUAAGAAGGCGGUACAUGAGGAUCACCCAUGUGAUACCCAGA [Eternabot (Original) Solution 15] (Eterna round: R97, puzzle: Exclusion 6)”, the “apparent KD of MS2 coat protein” value (input ligand: FMN 200 uM) is 551 nM and the “apparent KD of MS2 coat protein” value (input ligand: none) worked out at 316 nM.
The like results for “AGAUCGUCAGGAUAUACAUGAGGAUCACCCAUGUAUAGUCUAAAUUUGACUAUAAGAUGUAGAAGGGACGAUCG [Exclusion 3 (MOD5 of #1 Marzena11)] (Eterna round: R97, puzzle: Exclusion 3)” were, in that order, 75.8 nM and 21.4 nM.
As to “AGAUCUAGGACAGGAUAUACAGAUGGCUUCAUCGAAGAUGAAGCCAUUACAUGAGGAUCACCCAUGUAGAAGGGUCCUAGAUCA [Omei Exc(NG) 2Av5] (Eterna round: R96, puzzle: Exclusion NG 2)”, the “apparent KD of MS2 coat protein” value came to 17.7 nM (input ligand: FMN 200 uM), 12 nM under setting [1] and 14.2 nM (input ligand: none).
For “AGAUCUAGGACAGGAUAUACGGAUGUCUUCAUCGAAGAUGAAGACAUUACAUGAGGAUCACCCAUGUAGAAGGGUCCUAGAUCA [Omei Exc(NG) 2Av1] (Eterna round: R96, puzzle: Exclusion NG 2)”, in that order: 13.8 nM, 10.6 nM and 13.1 nM.
Take “AGAUCUAGGACAGGAUAUAUAGAUGGCUUCAUCGAAGAUGAAGCCAUUACAUGAGGAUCACCCAUGUAGAAGGGUCCUAGAUCA [Omei Exc(NG) 2Av7] (Eterna round: R96, puzzle: Exclusion NG 2)”: the “apparent KD of MS2 coat protein” value runs as follows: (input ligand: FMN 200 uM) 11.2 nM; under setting [1], 14.3 nM; (input ligand: none) 16.1 nM.
The like results for “AGAUGCUCAAGUCGACAUGAGGAUCACCCAUGUACAAUUAACGAGGAUAUCCGAGAUAAAUAAUAGGAGAAGGCGUGAUCAUGA [Mat - Exclusion NG 3 - Mod of JL - D54] (Eterna round: R96, puzzle: Exclusion NG 3)” were, in that order, 66.2 nM, 110 nM and 470 nM.
Take “AGAUGCUCGAGUCGACAUGAGGAUCACCCAUGUACAGUUAAUGAGGAUAUCUGAGACAAAUAGUAGGAGAAGGCGUGAACAUGA [Ex NG3 #11] (Eterna round: R96, puzzle: Exclusion NG 3)”: the “apparent KD of MS2 coat protein” value by setting is: (input ligand: FMN 200 uM) 191 nM; under setting [1], 68.6 nM; (input ligand: none) 90.9 nM.
On to “AGAUGGCGAGGAUAUACAUGAGGAUCACCCAUGUGAAGAAUAAUAGUGAGGAAGAAAAGUAGAAGGCGCUGUCA [Mat - Exclusion 3 - Mod of Salish D33] (puzzle: Exclusion 3)”, for which the “apparent KD of MS2 coat protein” value under setting [2] worked out at 37 nM.
The same measure, in the same setting: with “AGAUGGCGAGGAUAUACAUGAGGAUCACCCAUGUGAAGAUAAAUAGUGAGGAAGAAAAGUAGAAGGCGCUGUCA [Mat - Exclusion 3 - Mod of Salish D27] (puzzle: Exclusion 3)” the figure was 58.6 nM.
“AGAUGGCGAGGAUAUACAUGAGGAUCACCCAUGUGAGAUAAUAAAGUGAGGAAGAAAAGUAGAAGGCGCUGUCA [Mat - Exclusion 3 - Mod of Salish D13] (puzzle: Exclusion 3)”: the “apparent KD of MS2 coat protein” value under setting [3] was determined as 221 nM, the “apparent KD of MS2 coat protein” value under setting [2] came to 53.7 nM and the “apparent KD of MS2 coat protein” value under setting [4] stood at 56.8 nM.
Turning to “AGAUGUUAAGAGGAUAUCAGCCGAAACCGGCAGUGAGAAGGCUUGACAUGAGGAUCACCCAUGUUUUGCGGUAA [Intebiabe] (Eterna round: R97, puzzle: Exclusion 6)”, the “apparent KD of MS2 coat protein” value runs as follows: (input ligand: FMN 200 uM) 300 nM; (input ligand: none) 35.6 nM.
Turning to “AGAUUACGAGGAUAUCGAUUUUAGUACAUGAGGAUCACCCAUGUUAUCCAGGUCUCGUUUCGAGAAGGCGUGAUUC [LRO-Ex5-07] (puzzle: Exclusion 5)”, the “apparent KD of MS2 coat protein” value under setting [2] was determined as 196 nM.
Regarding “AGAUUACUGCGAGGAUAUACAUGAGGAUCACCCAUGUGGUGGUGUGAGGCAAAGCCUCACACCAUGUAGAAGGCGCAGUAAUCA [Mat - Exclusion NG 2 - Mod of JL - D22] (Eterna round: R96, puzzle: Exclusion NG 2)”, the “apparent KD of MS2 coat protein” value by setting is: (input ligand: FMN 200 uM) 150 nM; under setting [1], 23.3 nM; (input ligand: none) 44.5 nM.
As to “AGCAGUAGUAUCCGAUCCUACAUGAGGAUCACCCAUGUAGCUAGACGUGCACGCGAUGCUCGUCAGACUACCAGAUG [salish99_TOv1_r3_035] (puzzle: Sensor v3, turn-off variant 1)”, the “apparent KD of MS2 coat protein” value under setting [3] came to 119 nM, the “apparent KD of MS2 coat protein” value under setting [2] is 200 nM and the “apparent KD of MS2 coat protein” value under setting [4] was determined as 195 nM.
As to “AGCAUGCUAGGAUAUACGAAACAUUAGGGUUCUUUGUAUGAACAUGAGGAUCACCCAUGUAGAAGGAGCGUGCA [Mat - Exclusion 2 - Mod of Hyphema - D96] (puzzle: Exclusion 2)”, the “apparent KD of MS2 coat protein” value under setting [2] stood at 82.5 nM.
“AGCAUGUUAGGAUAUGCCAAAAUUAACCACGACUCAGUGAUGCAGAAGGAACAUGAGGAUCACCCAUGUGCUCC [Eternabot (L1) Solution 16] (Eterna round: R97, puzzle: Exclusion 4)”: the “apparent KD of MS2 coat protein” value runs as follows: (input ligand: FMN 200 uM) 219 nM; (input ligand: none) 38.2 nM.
For “AGCCACAGAGGAUAUACAUACAUCCAGUAGUAAAGAAUACUACAUGAGGAUCACCCAUGUAGAAGGCUGUGGCA [Omei Ex2 BD B13] (Eterna round: R97, puzzle: Exclusion 2)”, in that order: 308 nM and 86.4 nM.
The like results for “AGCCCUGCAGGAUAUGCCGAGGAUAACAUGAGGAUCACCCAUGUGACCGAUUGUUAGACUGCAGAAGGGCAUGGGA [salish99_ex5_r4_303] (Eterna round: R97, puzzle: Exclusion 5)” were, in that order, 81.7 nM and 509 nM.
As for “AGCCUAGCAGGAUAUGCCCGGGAUAACAUGAGGAUCACCCAUGUGACUGAUUGAUGUCCUGCAGAAGGGCUAGGGA [JL-EX5-4.01 ViennaUCT mod] (Eterna round: R97, puzzle: Exclusion 5)”, the “apparent KD of MS2 coat protein” value reads like this: (input ligand: FMN 200 uM) 154 nM; (input ligand: none) 25.9 nM.
The like results for “AGCGAGGCAGGAUAUACAUGAGGAUCACCCAUGUGCUUGCAUGGCGUGGGACGUCAACGUAGAAGGGCCAUGCC [EX3 #68] (Eterna round: R97, puzzle: Exclusion 3)” were, in that order, 76.3 nM and 117 nM.
With “AGCGCCAUCGUGAGAUGGCGUAUUACAUGAGGAUCACCCAUGUAGGAUAUCGAUUGCUUUGCAGUCGAGAAGGACAUGUUCUUC [JL ENG3 3.80 Mod C] (Eterna round: R96, puzzle: Exclusion NG 3)”, the “apparent KD of MS2 coat protein” value (input ligand: FMN 200 uM) turned out to be 66 nM, the “apparent KD of MS2 coat protein” value under setting [1] worked out at 16 nM and the “apparent KD of MS2 coat protein” value (input ligand: none) is 23.2 nM.
As to “AGCGCCAUCGUGAGAUGGCGUAUUACAUGAGGAUCACCCAUGUAGGAUAUCGAUUGCUUUGCAGUCGAGAAGGACAUGUUUUAG [JL ENG3 3.80 Mod E] (Eterna round: R96, puzzle: Exclusion NG 3)”, the “apparent KD of MS2 coat protein” value runs as follows: (input ligand: FMN 200 uM) 200 nM; under setting [1], 69.4 nM; (input ligand: none) 74.3 nM.

(Values after the supplement of paper PMC9170038.)
